Source: patent US20160368993A1 (University of California, published 2016)

Biological target: T1, αvβ6 integrin (R&D Systems), immobilized (UniProt P06756 31-992; P18564 22-707)
T1 construct: Bought protein captured on the plate by the anti-αv antibody P2W7; also called immobilized αvβ6 integrin
Assay: competitive binding ELISA against biotinylated fibronectin on immobilized αvβ6 integrin
Description: Separate competitive binding ELISAs were used to determine the binding affinity of the anti-αᵥβ₆ diabody and Cys-diabody relative to biotinylated fibronectin, a known natural ligand of the αᵥβ₆ integrin. Biotinylation of fibronectin was performed according to the manufacturer's instructions (Amersham Biosciences). The P2W7 antibody (anti-αᵥ, 5 μg/mL, Abcam) was plated into wells (50 μL/well) of a 96-well plate (Maxisorp®, Nunc). The plate was incubated at 37° C. for 1 h then washed with PBS (3×). After washing, the wells were blocked with blocking buffer (PBS, 5% bovine serum albumin (BSA), 1% Tween 20) and the plate was incubated at room temperature for 3 hrs, followed by washing with PBS (3×). The αᵥβ₆ integrin (3 μg/mL, R&D Systems) in conjugate buffer (20 mM Tris, 1 mM MnCl2, 150 mM NaCl, 0.1% Tween, 1% BSA) was added to the wells (50 μL/well). The plate was incubated at room temperature for 1 h and washed with wash buffer (20 mM Tris, 1 mM MnCl2, 150 mM NaCl, 0.1% Tween, 3×). […] Extravidin HRP conjugate was detected using 3,3′,5,5′-tetramethylbenzidine (TMB) substrate (50 μL/well) for 10-15 mins at room temperature. The reaction was terminated by the addition of 1N sulfuric acid (50 μL/well) and the absorbance of each well was measured in a Multiscan Ascent plate reader (Thermo) at 450 nm. […]

T1 sequence (P06756 31-992, chain 1 of 2): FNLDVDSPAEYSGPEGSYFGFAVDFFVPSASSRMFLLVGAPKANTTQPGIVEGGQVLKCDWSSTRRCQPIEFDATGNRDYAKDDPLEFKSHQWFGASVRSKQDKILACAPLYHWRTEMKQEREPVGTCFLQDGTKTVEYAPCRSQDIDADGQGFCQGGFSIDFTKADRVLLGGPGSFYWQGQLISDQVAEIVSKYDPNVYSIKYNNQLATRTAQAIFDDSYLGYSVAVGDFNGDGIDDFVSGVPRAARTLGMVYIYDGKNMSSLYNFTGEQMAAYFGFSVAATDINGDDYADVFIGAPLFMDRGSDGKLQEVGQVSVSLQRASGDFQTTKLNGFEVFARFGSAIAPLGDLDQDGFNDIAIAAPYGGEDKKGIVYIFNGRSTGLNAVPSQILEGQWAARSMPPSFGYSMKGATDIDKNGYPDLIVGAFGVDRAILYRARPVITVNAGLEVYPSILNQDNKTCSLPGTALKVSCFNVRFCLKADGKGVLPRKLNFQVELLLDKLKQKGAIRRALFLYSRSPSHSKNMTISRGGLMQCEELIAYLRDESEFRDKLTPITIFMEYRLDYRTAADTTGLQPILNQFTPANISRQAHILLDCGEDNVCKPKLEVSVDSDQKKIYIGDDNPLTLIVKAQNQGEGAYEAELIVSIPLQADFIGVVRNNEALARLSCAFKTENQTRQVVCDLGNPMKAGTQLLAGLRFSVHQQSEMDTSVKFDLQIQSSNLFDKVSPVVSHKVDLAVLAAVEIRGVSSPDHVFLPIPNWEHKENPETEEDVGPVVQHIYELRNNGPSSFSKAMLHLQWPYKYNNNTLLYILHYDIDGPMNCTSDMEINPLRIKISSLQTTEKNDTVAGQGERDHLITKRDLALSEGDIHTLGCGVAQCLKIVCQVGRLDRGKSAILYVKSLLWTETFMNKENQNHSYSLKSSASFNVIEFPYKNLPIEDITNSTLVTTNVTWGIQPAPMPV
T1 sequence (P18564 22-707, chain 2 of 2): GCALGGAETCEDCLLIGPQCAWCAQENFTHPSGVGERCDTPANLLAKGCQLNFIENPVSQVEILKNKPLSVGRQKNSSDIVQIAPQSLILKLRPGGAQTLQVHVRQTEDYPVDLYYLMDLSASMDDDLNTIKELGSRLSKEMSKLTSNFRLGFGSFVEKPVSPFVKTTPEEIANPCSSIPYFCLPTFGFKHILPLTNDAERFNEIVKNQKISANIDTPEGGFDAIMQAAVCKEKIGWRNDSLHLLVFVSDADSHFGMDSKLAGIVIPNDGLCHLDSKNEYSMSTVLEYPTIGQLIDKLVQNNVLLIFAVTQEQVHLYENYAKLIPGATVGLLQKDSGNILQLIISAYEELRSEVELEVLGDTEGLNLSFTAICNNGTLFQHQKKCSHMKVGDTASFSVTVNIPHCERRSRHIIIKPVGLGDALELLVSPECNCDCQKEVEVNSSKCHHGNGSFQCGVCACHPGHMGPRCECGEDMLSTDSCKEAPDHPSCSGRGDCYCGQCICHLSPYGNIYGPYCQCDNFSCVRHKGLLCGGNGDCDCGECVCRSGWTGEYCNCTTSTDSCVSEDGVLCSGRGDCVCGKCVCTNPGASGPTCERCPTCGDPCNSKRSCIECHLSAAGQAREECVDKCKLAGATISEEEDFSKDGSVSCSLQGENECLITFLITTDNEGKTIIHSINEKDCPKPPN

B1: anti-αvβ6 Cys-diabody (other)
scFv: EVQLVESGGGLVQPGGSLRLSCAASGFTFSRYVMSWVRQAPGKGLEWVASISSGGRMYYPDTVKGRFTISRDNAKNSLYLQMNSLRAEDTAVYYCARGSIYDGYYVFPYWGQGTLVTVSSGGSEIVLTQSPATLSLSPGERATLSCSASSSVSSSYLYWYQQKPGQAPRLLIYSTSNLASGIPARFSGSGSGTDFTLTISSLEPEDFAVYYCHQWSTYPPTFGGGTKVEIKHHHHHHGGC
modifications: C-terminal engineered cysteines of the two chains form an interchain disulfide
notes: Covalent dimer; also called disulfide-stabilized anti-αvβ6 Cys-diabody; B6DiaR-G2S-Cys
  IC50: 600 pM

B2: anti-αvβ6 diabody (other)
scFv: EVQLVESGGGLVQPGGSLRLSCAASGFTFSRYVMSWVRQAPGKGLEWVASISSGGRMYYPDTVKGRFTISRDNAKNSLYLQMNSLRAEDTAVYYCARGSIYDGYYVFPYWGQGTLVTVSSGGSEIVLTQSPATLSLSPGERATLSCSASSSVSSSYLYWYQQKPGQAPRLLIYSTSNLASGIPARFSGSGSGTDFTLTISSLEPEDFAVYYCHQWSTYPPTFGGGTKVEIKHHHHHH
notes: Non-covalent dimer of two VH-G2S-VL-His6 chains (diabody), secreted from 293-F cells; also called B6DiaR-G2S; parental anti-αvβ6 diabody
  IC50: 800 pM
